According to patent publication EP2748199B1 (Board of Regents, The University of Texas System, dated 2019):

Molecular target: T1, human OX40 (human, UniProt P43489 29-277)
T1 construct: whole, on cells; The construct used for transfection is not described; also called hOX40; OX40 receptor
T1 sequence (looked up): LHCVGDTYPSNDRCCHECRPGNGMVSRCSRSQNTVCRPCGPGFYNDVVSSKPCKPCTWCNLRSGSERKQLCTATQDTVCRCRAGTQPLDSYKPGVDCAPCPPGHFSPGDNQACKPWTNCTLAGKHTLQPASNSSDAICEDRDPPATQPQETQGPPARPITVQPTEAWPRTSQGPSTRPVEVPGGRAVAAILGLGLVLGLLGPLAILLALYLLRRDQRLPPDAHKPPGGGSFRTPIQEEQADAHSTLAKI
Test: flow cytometry on L/OX40 cells, FITC goat anti-human IgG

EC50: 0.96 µg/mL
B1: chimeric 119-43-1 IgG1/κ antibody (antibody, V domains shown)
VH: EVKLEESGGGLVQPGGSMKLSCAASGFTFSDAWMDWVRQSPEKGLEWVAEIRSKANNHATYYAESVNGRFTISRDDSKSSVYLQMNSLRAEDTGIYYCTWGEVFYFDYWGQGTTLTVSS
VL: DIQMTQSPSSLSASLGGKVTITCKSSQDINKYIAWYQHKPGKGPRLLIHYTSTLQPGIPSRFSGSGSGRDYSFSISNLEPEDIATYYCLQYDNLLTFGAGTKLELKR
notes: also called Ch119-43-1
